# Tests used:
# [1] = biological target: TRPC4β, CFP- or YFP-tagged (UniProt Q9QUQ5); assay: FRET or BRET; three-cube FRET in living cells expressing Gαq (WT)-YFP, M3 and TRPC1α with TRPC4β-CFP or CFP-TRPC5; after stimulation with 100 μM CCh
# [2] = biological target: TRPC5, CFP- or YFP-tagged (UniProt Q9QX29); assay: as above
# Chain of UniProt Q9QX29 (Q9QX29 whole entry): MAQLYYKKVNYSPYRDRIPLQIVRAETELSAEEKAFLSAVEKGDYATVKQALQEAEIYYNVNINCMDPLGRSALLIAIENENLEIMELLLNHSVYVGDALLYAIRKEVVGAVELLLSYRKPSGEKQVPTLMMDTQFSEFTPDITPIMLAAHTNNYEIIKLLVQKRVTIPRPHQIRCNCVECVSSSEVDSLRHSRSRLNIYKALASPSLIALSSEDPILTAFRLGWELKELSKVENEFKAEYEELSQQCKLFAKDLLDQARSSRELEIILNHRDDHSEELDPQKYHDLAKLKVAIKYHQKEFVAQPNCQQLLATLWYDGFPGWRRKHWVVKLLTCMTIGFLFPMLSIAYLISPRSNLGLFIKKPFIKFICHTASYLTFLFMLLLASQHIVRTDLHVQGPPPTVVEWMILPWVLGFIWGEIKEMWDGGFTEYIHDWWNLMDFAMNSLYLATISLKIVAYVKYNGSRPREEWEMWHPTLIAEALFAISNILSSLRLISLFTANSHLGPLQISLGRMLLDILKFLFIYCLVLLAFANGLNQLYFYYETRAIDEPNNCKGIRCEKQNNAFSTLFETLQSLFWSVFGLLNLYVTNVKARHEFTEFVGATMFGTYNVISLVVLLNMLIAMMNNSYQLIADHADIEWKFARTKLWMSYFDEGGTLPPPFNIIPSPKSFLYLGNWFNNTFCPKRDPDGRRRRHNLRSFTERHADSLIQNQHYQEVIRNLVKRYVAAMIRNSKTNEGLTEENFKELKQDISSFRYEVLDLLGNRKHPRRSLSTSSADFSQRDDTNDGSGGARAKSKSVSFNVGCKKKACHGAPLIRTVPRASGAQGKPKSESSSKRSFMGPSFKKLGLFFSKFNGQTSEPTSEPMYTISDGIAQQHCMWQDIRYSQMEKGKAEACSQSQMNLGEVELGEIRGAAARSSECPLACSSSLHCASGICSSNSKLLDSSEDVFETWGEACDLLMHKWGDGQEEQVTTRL
# Chain of UniProt Q9QUQ5 (Q9QUQ5 other isoform, or with tags, fused parts or gaps): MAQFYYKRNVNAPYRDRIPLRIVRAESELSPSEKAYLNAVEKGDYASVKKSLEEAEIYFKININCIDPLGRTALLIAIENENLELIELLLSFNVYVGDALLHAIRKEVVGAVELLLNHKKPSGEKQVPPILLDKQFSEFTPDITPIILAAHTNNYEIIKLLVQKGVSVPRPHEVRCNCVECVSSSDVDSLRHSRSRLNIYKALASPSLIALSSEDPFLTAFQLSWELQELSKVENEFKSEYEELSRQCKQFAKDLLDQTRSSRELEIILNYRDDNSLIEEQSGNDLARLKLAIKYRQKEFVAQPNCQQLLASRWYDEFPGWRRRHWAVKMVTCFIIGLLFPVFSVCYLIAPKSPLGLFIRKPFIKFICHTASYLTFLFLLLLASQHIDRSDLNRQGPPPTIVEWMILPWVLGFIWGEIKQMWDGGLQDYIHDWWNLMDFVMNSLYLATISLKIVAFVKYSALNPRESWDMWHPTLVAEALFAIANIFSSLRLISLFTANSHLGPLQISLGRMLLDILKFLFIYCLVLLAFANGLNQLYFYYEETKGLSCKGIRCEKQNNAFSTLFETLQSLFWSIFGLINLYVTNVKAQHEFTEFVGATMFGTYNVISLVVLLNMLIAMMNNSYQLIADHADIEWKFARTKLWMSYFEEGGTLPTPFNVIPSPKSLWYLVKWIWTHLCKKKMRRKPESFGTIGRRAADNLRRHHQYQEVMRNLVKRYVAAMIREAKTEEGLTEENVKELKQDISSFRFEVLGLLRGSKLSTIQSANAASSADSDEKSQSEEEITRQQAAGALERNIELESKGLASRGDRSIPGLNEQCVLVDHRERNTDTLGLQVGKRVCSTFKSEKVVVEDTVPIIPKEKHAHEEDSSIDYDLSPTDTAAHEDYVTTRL
substance,measurement,setting,value
Gαq (WT)-YFP (from UniProt P50148 1-359) (natural protein),FRET efficiency (after 100 μM CCh),[1],8.8%
same,FRET efficiency (after 100 μM CCh),[2],15.9%

# Source: article PMC6092394
